Assay results: patent publication US20250019446A1 (SHANGHAI SINOBAY BIOTECHNOLOGY, published 2025)
Numbering of substitutions follows the chain as printed.

T1: human recombinant AXL protein, extracellular domain (hAXL-ECD) (human, UniProt P30530 26-451)
T1 construct: extracellular domain; Bought protein; also called antigen hAXL-ECD; hAXL-ECD protein
T1 sequence (looked up): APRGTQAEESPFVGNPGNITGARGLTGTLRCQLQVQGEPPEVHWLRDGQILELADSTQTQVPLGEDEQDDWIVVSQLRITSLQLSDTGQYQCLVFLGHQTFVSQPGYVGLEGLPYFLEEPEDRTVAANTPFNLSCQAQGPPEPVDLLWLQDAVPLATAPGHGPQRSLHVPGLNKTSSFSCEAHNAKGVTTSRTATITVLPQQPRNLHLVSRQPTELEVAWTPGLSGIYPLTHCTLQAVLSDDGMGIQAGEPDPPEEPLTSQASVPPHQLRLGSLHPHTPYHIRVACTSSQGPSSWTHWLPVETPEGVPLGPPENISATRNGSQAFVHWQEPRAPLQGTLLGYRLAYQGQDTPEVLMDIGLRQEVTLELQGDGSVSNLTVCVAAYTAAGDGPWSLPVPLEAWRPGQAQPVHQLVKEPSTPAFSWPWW

T2: AXL on CHO-AXL cells (human, UniProt P30530 26-894)
T2 construct: whole, on cells; The construct in the CHO-AXL cells is not described
T2 sequence (looked up): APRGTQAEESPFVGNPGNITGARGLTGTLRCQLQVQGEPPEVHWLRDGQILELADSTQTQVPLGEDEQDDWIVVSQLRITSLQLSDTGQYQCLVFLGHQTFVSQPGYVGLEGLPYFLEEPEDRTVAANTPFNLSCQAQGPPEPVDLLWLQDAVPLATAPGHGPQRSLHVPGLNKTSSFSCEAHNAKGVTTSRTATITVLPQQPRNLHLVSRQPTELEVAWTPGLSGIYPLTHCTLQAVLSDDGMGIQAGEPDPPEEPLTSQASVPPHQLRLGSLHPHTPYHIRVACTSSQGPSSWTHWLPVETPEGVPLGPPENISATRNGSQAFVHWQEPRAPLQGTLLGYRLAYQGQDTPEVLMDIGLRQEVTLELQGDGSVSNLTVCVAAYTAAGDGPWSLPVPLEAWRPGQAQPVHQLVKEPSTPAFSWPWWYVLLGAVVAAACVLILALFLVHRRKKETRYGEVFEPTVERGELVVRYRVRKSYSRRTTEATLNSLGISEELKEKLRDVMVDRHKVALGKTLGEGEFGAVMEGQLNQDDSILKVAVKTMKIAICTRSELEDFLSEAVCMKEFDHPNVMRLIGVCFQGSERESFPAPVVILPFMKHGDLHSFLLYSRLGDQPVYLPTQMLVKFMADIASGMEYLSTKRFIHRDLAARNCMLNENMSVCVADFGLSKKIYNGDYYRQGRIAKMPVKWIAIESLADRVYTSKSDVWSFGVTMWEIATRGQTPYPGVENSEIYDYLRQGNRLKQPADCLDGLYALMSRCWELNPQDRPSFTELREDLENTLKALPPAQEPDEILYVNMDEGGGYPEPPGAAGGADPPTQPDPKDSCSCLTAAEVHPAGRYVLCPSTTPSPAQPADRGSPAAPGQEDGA

B1: Hu001-7 Fab (clone 7, expressed in clone supernatant) (Fab, V domains shown)
VH: QVQLVQSGAEVKKPGSSVKVSCKASGGTFSSYAISWVRQAPGQGLEWMGGIIPIFGTANYAQKFQGRVTITADESTSTAYMELSSLRSEDTAVYYCAKDIVSRVRGELVGGYYYFGLDVWGQGTTVTVSA
VL: NIQLTQSPSSLSASVGDRVTITCRASQTISSYLNWYQQKPGKAPKLLIYAASRLQSGVPSRFSGSGSGTDFTLTISSLQPEDFATYYCQQSYSTPRTFGQGTKVEIK
notes: Fab from the phage library clone, tested as bacterial culture supernatant
B2: Hu001-5 antibody (full-length human IgG1, kappa) (antibody, V domains shown)
VH: QVQLLESGGGVVQPGRSLRLSCAASGFTFSSYGMHWVRQAPGKGLEWVAVISYDGSNKYYADSVKGRFTISRDNSKNTLYLQMNSLRAEDTAVYYCAKDQVLAPVGGGLFDYWGQGTLVTVSA
VL: B1 VL with N1D, T28S, S31T, K45E, L46S, Y49F, R53S, Q55A, Q100P
notes: built as human IgG1 with kappa light chain in vectors AbVec-hIgG1 WT and AbVec-hIgKappa, expressed in Expi293 cells; also called anti-AXL antibody Hu001-5
B3: Hu001-5 Fab (clone 5, expressed in clone supernatant) (Fab, V domains shown)
VH: B2 VH
VL: B1 VL with N1D, T28S, S31T, K45E, L46S, Y49F, R53S, Q55A, Q100P
notes: as for B1
B4: Hu001-11 Fab (clone 11, expressed in clone supernatant) (Fab, V domains shown)
VH: QVQLLESGGGVVQPGRSLRLSCAASGFTFSSYGMHWVRQAPGKGLEWVAVISYDGSNKYYADSVKGRFTISRDNSKNTLYLQMNSLRAEDTAVYYCAKYGSSGPYWYFDLWGQGTLVTVSA
VL: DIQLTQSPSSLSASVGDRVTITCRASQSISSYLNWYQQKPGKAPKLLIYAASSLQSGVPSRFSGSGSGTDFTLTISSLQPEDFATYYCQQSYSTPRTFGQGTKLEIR
notes: as for B1
B5: Hu001-11 antibody (full-length human IgG1, kappa) (antibody, V domains shown)
VH: B4 VH
VL: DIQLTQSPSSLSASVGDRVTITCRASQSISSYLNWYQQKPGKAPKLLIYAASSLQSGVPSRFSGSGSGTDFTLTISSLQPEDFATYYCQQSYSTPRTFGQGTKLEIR
notes: built as human IgG1 with kappa light chain in vectors AbVec-hIgG1 WT and AbVec-hIgKappa, expressed in Expi293 cells; also called anti-AXL antibody Hu001-11
B6: Hu001-14 Fab (clone 14, expressed in clone supernatant) (Fab, V domains shown)
VH: EVQLVQSGAEVKKPGASVKVSCKASGYTFTSYYMHWVRQAPGQGLEWMGIINPSGGSTSYAQKFQGRVTMTRDTSTSTVYMELSSLRSEDSAVYYCARDWYFDVWGAGTTVTVSA
VL: NIQMTQSPSSVSASVGDRVTITCRASQGISSWLAWYQQKPGKAPKLLIYAASSLQSGVPSRFSGSGSGTDFTLTISSLQPEDFATYYCQQANSFPFTFGGGTKVEIK
notes: as for B1

Legend:
[1] = molecular target: T1, human recombinant AXL protein, …; test: ELISA, Fab supernatant on coated hAXL-ECD, OD450; unit inferred, unit taken from the concentration axis
Experimental: Clones from the third round of selection were first picked up in a 96-well deep-well plate containing 300 μL of 2-YT medium and incubated overnight at 37° C. The supernatant, which contained the expressed Fab, was taken, diluted in a gradient, and added to an ELISA plate coated with 2 μg/mL of hAXL-ECD. HRP-labeled goat anti-human Fab was used as the secondary antibody (goat anti-human-HRP, ThermnoFisher, 31482, 1:6000 dilution) for detection. A higher signal value indicated a stronger affinity.

[2] = molecular target: T2, AXL on CHO-AXL cells; test: flow cytometry on CHO-AXL cells, pH 6.0 against pH 7.4
Experimental: (§1) The affinity of the candidate antibody for specific binding to hAXL-ECD was detected by flow cytometry. A total of 4 clones of Hu001-5, Hu001-7, Hu001-11, and Hu001-14 were tested under acidic (pH=6.0) and neutral (pH=7.4) conditions, respectively.
(§2) CHO-AXL cells (constructed by Shanghai Sinobay Biotechnology Co. Ltd.) were cultured in a cell culture flask in DMEM/F-12 medium (10% FBS, 1% penicillin/streptomycin). After 48 hours of culture at 37° C. in an incubator containing 5% CO₂, the supernatant was discarded. The cells were collected by digestion with 0.25% trypsin and centrifuged at 800 g for 3 minutes. The supernatant was discarded and the cells were resuspended (10⁶/mL) in 2% FBS Wash Buffer. The pH of the buffer was adjusted and the cells were divided into pH6.0 and pH7.4 groups, and primary antibodies (Hu001-5 antibody, Hu001-7 antibody, Hu001-11 antibody, Hu001-14 antibody, and positive control antibody CCT301-38) were added to each group and incubated for 15 minutes at room temperature. The supernatant was discarded. Fluorescent-labeled secondary antibody IgG-Fc-PE (BioLegend, cat. No. 409304) was added and incubation was continued at room temperature for 15 min in the dark. Then, the detection was performed on the machine. A higher signal value can indicate a stronger affinity. […]

[3] = molecular target: T2, AXL on CHO-AXL cells; test: flow cytometry on CHO-AXL cells, pH 6.0 and pH 7.4, IgG-Fc-PE secondary antibody
Experimental: as §1, §2

Binder	EC50 [1] [µg/mL]	fold of mean fluorescence intensity under the acidic condition against the neutral condition [2] [fold]	fold of mean fluorescence intensity against the positive control CCT301-38 [3] [fold]
B1	0.214		
B2		~1.5	~4
B3	0.292		
B4	0.14		
B5		~1.5	~4
B6	0.274		
